Results as given in the supplement of paper PMC9112550, “Optimization of the antimicrobial peptide Bac7 by deep mutational scanning” (BMC Biology, 2022).

Test system: Escherichia coli TOP10
Assay: shrunken log2 fold change of peptide-encoding DNA abundance (4.5 h post-induction vs induction); higher = less antimicrobial activity (less host growth inhibition)
Conditions: time post-induction: 4.5 h; library: site-saturation at positions 5, 18, 19, 20
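Further: peptides expressed intracellularly from a pBAD plasmid library in pooled LB shake-flask culture, induced with 0.3% L-arabinose, DNA abundance read by NGS, three biological replicates, DESeq2 with apeglm shrinkage.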

Sequence	shrunken log2 fold change
RRIRSRPPRLPRPRPRPGTLPRP	-0.571
RRIRSRPPRLPRPRPRPGTMPRP	-0.315
RRIRSRPPRLPRPRPRPGTNPRP	-0.188
RRIRSRPPRLPRPRPRPGVRPRP	-0.0323
RRIRSRPPRLPRPRPRPGWAPRP	0.706
RRIRSRPPRLPRPRPRPGWYPRP	-0.118
RRIRSRPPRLPRPRPRPGYIPRP	-0.0571
RRIRSRPPRLPRPRPRPGYMPRP	-0.148
RRIRSRPPRLPRPRPRPHAWPRP	0.149
RRIRSRPPRLPRPRPRPHCDPRP	-0.38
RRIRSRPPRLPRPRPRPHCVPRP	-0.0724
RRIRSRPPRLPRPRPRPHDHPRP	-0.23
RRIRSRPPRLPRPRPRPHEQPRP	0.128
RRIRSRPPRLPRPRPRPHESPRP	-0.15
RRIRSRPPRLPRPRPRPHEWPRP	0.147
RRIRSRPPRLPRPRPRPHFYPRP	0.166
RRIRSRPPRLPRPRPRPHGGPRP	0.103
RRIRSRPPRLPRPRPRPHGLPRP	-0.0195
RRIRSRPPRLPRPRPRPHGQPRP	0.24
RRIRSRPPRLPRPRPRPHHTPRP	-0.625
RRIRSRPPRLPRPRPRPHIFPRP	-0.197
RRIRSRPPRLPRPRPRPHISPRP	-0.035
RRIRSRPPRLPRPRPRPHIYPRP	-0.607
RRIRSRPPRLPRPRPRPHKMPRP	-0.156
RRIRSRPPRLPRPRPRPHKWPRP	-0.296

Sequence	shrunken log2 fold change
RRIRSRPPRLPRPRPRPHLAPRP	-0.0617
RRIRSRPPRLPRPRPRPHMNPRP	-0.548
RRIRSRPPRLPRPRPRPHNAPRP	-0.197
RRIRSRPPRLPRPRPRPHNNPRP	-0.751
RRIRSRPPRLPRPRPRPHPLPRP	-0.00402
RRIRSRPPRLPRPRPRPHPWPRP	-0.0172
RRIRSRPPRLPRPRPRPHTEPRP	-0.599
RRIRSRPPRLPRPRPRPHTLPRP	-0.116
RRIRSRPPRLPRPRPRPHVAPRP	-0.136
RRIRSRPPRLPRPRPRPHVTPRP	-0.232
RRIRSRPPRLPRPRPRPHVYPRP	-0.355
RRIRSRPPRLPRPRPRPHWHPRP	-0.124
RRIRSRPPRLPRPRPRPHWSPRP	-0.0455
RRIRSRPPRLPRPRPRPHYIPRP	-0.556
RRIRSRPPRLPRPRPRPIAFPRP	-0.388
RRIRSRPPRLPRPRPRPICCPRP	-0.0929
RRIRSRPPRLPRPRPRPICEPRP	0.0675
RRIRSRPPRLPRPRPRPICRPRP	-0.0192
RRIRSRPPRLPRPRPRPIDNPRP	-0.163
RRIRSRPPRLPRPRPRPIEWPRP	0.0274
RRIRSRPPRLPRPRPRPIFAPRP	0.192
RRIRSRPPRLPRPRPRPIKAPRP	0.0326
RRIRSRPPRLPRPRPRPIKIPRP	-0.209
RRIRSRPPRLPRPRPRPILAPRP	-0.162
RRIRSRPPRLPRPRPRPILKPRP	-0.469

Sequence	shrunken log2 fold change
RRIRSRPPRLPRPRPRPILRPRP	-0.0847
RRIRSRPPRLPRPRPRPILYPRP	-0.481
RRIRSRPPRLPRPRPRPINGPRP	-0.00748
RRIRSRPPRLPRPRPRPIPCPRP	-0.297
RRIRSRPPRLPRPRPRPIQAPRP	-0.0793
RRIRSRPPRLPRPRPRPIQDPRP	0.00805
RRIRSRPPRLPRPRPRPIQLPRP	-0.238
RRIRSRPPRLPRPRPRPIRMPRP	-0.109
RRIRSRPPRLPRPRPRPIRTPRP	-0.207
RRIRSRPPRLPRPRPRPIVCPRP	0.0317
RRIRSRPPRLPRPRPRPIVKPRP	-0.143
RRIRSRPPRLPRPRPRPIVRPRP	-0.11
RRIRSRPPRLPRPRPRPIWFPRP	0.112
RRIRSRPPRLPRPRPRPIWHPRP	-0.271
RRIRSRPPRLPRPRPRPIWNPRP	-0.316
RRIRSRPPRLPRPRPRPIYSPRP	0.101
RRIRSRPPRLPRPRPRPKCLPRP	0.0157
RRIRSRPPRLPRPRPRPKCMPRP	-0.218
RRIRSRPPRLPRPRPRPKDAPRP	0.22
RRIRSRPPRLPRPRPRPKDCPRP	0.456
RRIRSRPPRLPRPRPRPKDEPRP	0.382
RRIRSRPPRLPRPRPRPKDQPRP	0.232
RRIRSRPPRLPRPRPRPKDWPRP	0.21
RRIRSRPPRLPRPRPRPKESPRP	0.284
RRIRSRPPRLPRPRPRPKFGPRP	-0.15

Sequence	shrunken log2 fold change
RRIRSRPPRLPRPRPRPKGFPRP	0.158
RRIRSRPPRLPRPRPRPKHAPRP	0.143
RRIRSRPPRLPRPRPRPKHDPRP	-0.0942
RRIRSRPPRLPRPRPRPKMLPRP	-0.149
RRIRSRPPRLPRPRPRPKQHPRP	0.235
RRIRSRPPRLPRPRPRPKRAPRP	0.326
RRIRSRPPRLPRPRPRPKTQPRP	-0.0511
RRIRSRPPRLPRPRPRPKVDPRP	0.093
RRIRSRPPRLPRPRPRPKWCPRP	-0.132
RRIRSRPPRLPRPRPRPKWKPRP	-0.0184
RRIRSRPPRLPRPRPRPKWMPRP	0.269
RRIRSRPPRLPRPRPRPLAAPRP	0.562
RRIRSRPPRLPRPRPRPLASPRP	0.0667
RRIRSRPPRLPRPRPRPLCIPRP	-0.334
RRIRSRPPRLPRPRPRPLCLPRP	0.259
RRIRSRPPRLPRPRPRPLCMPRP	-0.242
RRIRSRPPRLPRPRPRPLCQPRP	-0.135
RRIRSRPPRLPRPRPRPLEEPRP	0.411
RRIRSRPPRLPRPRPRPLEIPRP	0.11
RRIRSRPPRLPRPRPRPLERPRP	-0.0196
RRIRSRPPRLPRPRPRPLFCPRP	-0.146
RRIRSRPPRLPRPRPRPLFFPRP	-0.172
RRIRSRPPRLPRPRPRPLFTPRP	-0.0175
RRIRSRPPRLPRPRPRPLGKPRP	2.2
RRIRSRPPRLPRPRPRPLIHPRP	-0.279

Sequence	shrunken log2 fold change
RRIRSRPPRLPRPRPRPLILPRP	-0.628
RRIRSRPPRLPRPRPRPLIMPRP	-0.47
RRIRSRPPRLPRPRPRPLLWPRP	0.236
RRIRSRPPRLPRPRPRPLLYPRP	-0.162
RRIRSRPPRLPRPRPRPLNRPRP	-0.246
RRIRSRPPRLPRPRPRPLPIPRP	0.0503
RRIRSRPPRLPRPRPRPLPRPRP	0.741
RRIRSRPPRLPRPRPRPLQQPRP	0.553
RRIRSRPPRLPRPRPRPLSGPRP	-0.0801
RRIRSRPPRLPRPRPRPLSTPRP	-0.369
RRIRSRPPRLPRPRPRPLTCPRP	-0.114
RRIRSRPPRLPRPRPRPLVIPRP	-0.281
RRIRSRPPRLPRPRPRPLWFPRP	0.274
RRIRSRPPRLPRPRPRPLWIPRP	-0.497
RRIRSRPPRLPRPRPRPLWRPRP	0.303
RRIRSRPPRLPRPRPRPLWYPRP	-0.327
RRIRSRPPRLPRPRPRPMAGPRP	0.119
RRIRSRPPRLPRPRPRPMGDPRP	0.00987
RRIRSRPPRLPRPRPRPMGGPRP	0.334
RRIRSRPPRLPRPRPRPMHMPRP	-0.13
RRIRSRPPRLPRPRPRPMIHPRP	-0.0892
RRIRSRPPRLPRPRPRPMKWPRP	0.053
RRIRSRPPRLPRPRPRPMPMPRP	0.0988
RRIRSRPPRLPRPRPRPMPYPRP	-0.278
RRIRSRPPRLPRPRPRPMQAPRP	0.0325

Sequence	shrunken log2 fold change
RRIRSRPPRLPRPRPRPMRPPRP	0.787
RRIRSRPPRLPRPRPRPMTMPRP	-0.245
RRIRSRPPRLPRPRPRPMTRPRP	0.381
RRIRSRPPRLPRPRPRPMTYPRP	0.132
RRIRSRPPRLPRPRPRPMVWPRP	0.0214
RRIRSRPPRLPRPRPRPMWAPRP	0.00731
RRIRSRPPRLPRPRPRPMWHPRP	-0.332
RRIRSRPPRLPRPRPRPMYGPRP	-0.844
RRIRSRPPRLPRPRPRPNCLPRP	-0.28
RRIRSRPPRLPRPRPRPNCRPRP	-0.0318
RRIRSRPPRLPRPRPRPNDCPRP	-0.00188
RRIRSRPPRLPRPRPRPNDIPRP	-0.333
RRIRSRPPRLPRPRPRPNDRPRP	0.0698
RRIRSRPPRLPRPRPRPNEAPRP	0.162
RRIRSRPPRLPRPRPRPNEVPRP	-0.131
RRIRSRPPRLPRPRPRPNFEPRP	-0.068
RRIRSRPPRLPRPRPRPNGSPRP	-0.21
RRIRSRPPRLPRPRPRPNIDPRP	-0.204
RRIRSRPPRLPRPRPRPNIPPRP	-0.492
RRIRSRPPRLPRPRPRPNKGPRP	-0.413
RRIRSRPPRLPRPRPRPNKRPRP	-0.174
RRIRSRPPRLPRPRPRPNKYPRP	-0.653
RRIRSRPPRLPRPRPRPNLDPRP	-0.0975
RRIRSRPPRLPRPRPRPNLVPRP	-0.0453
RRIRSRPPRLPRPRPRPNLYPRP	-0.167
